Reference: patent publication US20190248888A1, “METHODS OF LOWERING BLOOD GLUCOSE LEVELS” (Regeneron Pharmaceuticals, Inc., priority 2016, published 2019)

Assays:
pancreatic islets = assay: Ki67 staining of cell proliferation in pancreatic islets; format: in vivo, mouse
Text: Ki67 staining was used to detect cell proliferation in pancreatic islets from GCGR-antibody treated mice. Cell proliferation was negligible in islets from control antibody treated mice and in non-Gcg(+) islet cells from GCGR-antibody treated mice (FIG. 3A). However, Ki67 staining was detected in GCG(+) cells from the GCGR-antibody treated mice (FIG. 3A).

Slc38a5−/− mice = assay: GCGR antibody in Slc38a5−/− mice and wildtype littermates; format: in vivo, mouse; settings: 10 mg/kg weekly, 20 days
Experimental: Mice deficient in Slc38a5 (100% C57BL/6NTac) were generated by homologous recombination using Regeneron's VelociGene technology (Valenzuela et al., 2003, Nat Biotechnol 21:652-659). VelociGene allele identification number is VG15016. Both male and female mice were used for the study. […] Slc38a5^−/− mice and wildtype littermates were dosed with GCGR or control antibody (10 mg/kg; n=8) weekly for 20 days. Samples of blood and plasma as well as organ weights and pancreata were collected as outlined above.

C57BL/6 mice = assay: GCGR antibody with or without rapamycin in C57BL/6 mice: blood chemistry, islet cell mass; settings: 21 days
Experimental: C57BL/6 mice (males, 10 weeks of age, Taconic) were housed (5 mice per cage) in a controlled environment (12-h light/dark cycle, 22±1° C., 60-70% humidity) and fed ad libitum with standard chow (Purina Laboratory Rodent Diet 5001, LabDiet). Mice were assigned to study groups (n=10) based on baseline blood glucose levels. Mice were injected subcutaneously (sc) with GCGR antibody (3 mg/kg) or the control antibody (3 mg/kg) alone or in combination with rapamycin (10 mg/kg) or the vehicle. For the duration of the study, GCGR or control antibody was administered once weekly, whereas rapamycin or the vehicle was administered daily. Blood was collected from the tail for glucose measurements without fasting. Plasma samples were collected via submandibular bleeds at baseline and on day 21 after dosing for analysis of hormones and total amino acid levels. Seven days after the last antibody administration (day 21), mice were sacrificed, organs weighed and pancreata collected.
Pancreas α- and β-cell mass was measured as described elsewhere (Okamato et al., 2015, Endocrinology 156:2781-2794). α- and PP cell mass were determined using anti-somatostatin antibody (Sigma-Aldrich; #SAB4502861) and anti-pancreatic polypeptide antibody (Sigma-Aldrich; #SAB2500747). For quantifying Slc38a5 positive α-cells, pancreas sections were stained with human anti-glucagon and rabbit anti-Slc38a5 (Abcam; #ab72717) primary antibodies, and Alexa Fluor 488 labeled donkey anti-rabbit (Jackson ImmunoResearch; #711-545-152) and Alexa Fluor 594 donkey anti-human (Jackson ImmunoResearch; #709-585-149) secondary antibodies. For quantifying proliferating cells, Alexa Fluor 647 labeled anti-Ki67 (Abcam; #ab194724) was used in combination with anti-glucagon and anti-Slc38a5 antibodies. Slides were scanned using a Zeiss Axio Scan.Z1 slide scanner (Zeiss) and the images were analyzed using the Halo (Indica Labs).
Blood glucose was determined using ACCU-CHEK® Compact Plus (Roche Diagnostics). Plasma glucagon and insulin levels were determined using glucagon and mouse insulin ELISA (Mercodia). Plasma total amino acid levels were measured using L-Amino Acid Quantification Kit (Sigma-Aldrich).

B1: α-GCGR: potent monoclonal GCGR blocking antibody, HCVR/LCVR SEQ ID NOs: 86/88 (antibody, V domains shown)
VH: EVQLVESGGGLVQPGGSLRLSCAASGFTFSNYLMNWVRQAPGKGLEWLANIQEDGIEKYYVDSVKGRFTISRDNAKNSLYLQMNSLRAEDTAVYYCAREPSHYDILTGYDYYYGMDVWGQGTTVTVS
VL: DIQMTQSPSSLSASVGDRVTITCRASQGIRNDLGWYQQKPGKAPKRLIYAASSLQSGVPSRFSGSGSGTEFILTVSSLQPEDFATYYCLQYNSNPFTFGPGTKVDIK
proliferation rate in Slc38a5(+) relative to Slc38a5(−) α-cells (pancreatic islets; GCGR-antibody treated mice, 11 days): 4 times
Ki67 staining in GCG(+) cells (pancreatic islets; mice treated 11 days): detected
blood glucose levels in Slc38a5−/− mice compared with littermate control mice (Slc38a5−/− mice): to the same extent
reduction of the expansion of α-cell mass in Slc38a5−/− mice relative to treated control mice (Slc38a5−/− mice): 50%
plasma insulin levels (Slc38a5−/− mice; WT and Slc38a5−/− mice): No effects
α-cell mass or number of islets per pancreas area (FIGS. 5H and 5I) (Slc38a5−/− mice; WT and Slc38a5−/− mice): did not affect
blood glucose levels (C57BL/6 mice; C57BL/6 mice, 3 mg/kg weekly): reduce
plasma amino acid levels (C57BL/6 mice; GCGR antibody 3 mg/kg): significantly increased
α-cell size (C57BL/6 mice; GCGR antibody 3 mg/kg): slightly increased
